Measured values reported in US20250101111A1.

Experiments:
human FcγRIIb (human) [1] = target: human FcγRIIb (human) (UniProt P31994); assay: SPR (IBIS MX96), FcγR captured on sensor, full-length IgG1 titrated, pH 7.4, equilibrium 1:1 fit
[2] = target: human FcγRIIa-131R (human) (UniProt P12318); assay: as above
[3] = target: human FcγRIIa-131H (human) (UniProt P12318); assay: as above
human FcγRIa (human) [4] = target: human FcγRIa (human) (UniProt P12314); assay: as above
[5] = target: human FcγRIIIb-NA1 (human) (UniProt O75015); assay: as above
human FcγRIIb (human) [6] = target: human FcγRIIb (human) (UniProt P31994); assay: SPR (IBIS MX96), FcγR captured on sensor, full-length IgG1 titrated, pH 6.0, equilibrium 1:1 fit
[7] = target: human FcγRIIa-131R (human) (UniProt P12318); assay: as above
[8] = target: human FcγRIIa-131H (human) (UniProt P12318); assay: as above
[9] = target: human FcγRIIIa-158V (human) (UniProt P08637); assay: as above
human FcγRIa (human) [10] = target: human FcγRIa (human) (UniProt P12314); assay: as above
[11] = target: human FcγRIIIb-NA1 (human) (UniProt O75015); assay: as above
[12] = target: human FcγRIIIb-NA2 (human) (UniProt O75015); assay: SPR (IBIS MX96), FcγR captured on sensor, full-length IgG1 titrated, pH 7.4, equilibrium 1:1 fit
[13] = target: human FcγRIIIa-158V (human) (UniProt P08637); assay: as above
[14] = target: human FcγRIIIa-158F (human) (UniProt P08637); assay: as above
[15] = target: human FcγRIIIb-NA2 (human) (UniProt O75015); assay: SPR (IBIS MX96), FcγR captured on sensor, full-length IgG1 titrated, pH 6.0, equilibrium 1:1 fit
[16] = target: human FcγRIIIa-158F (human) (UniProt P08637); assay: as above

Sequence of human FcγRIIb (human) (P31994 43-217 limits assumed): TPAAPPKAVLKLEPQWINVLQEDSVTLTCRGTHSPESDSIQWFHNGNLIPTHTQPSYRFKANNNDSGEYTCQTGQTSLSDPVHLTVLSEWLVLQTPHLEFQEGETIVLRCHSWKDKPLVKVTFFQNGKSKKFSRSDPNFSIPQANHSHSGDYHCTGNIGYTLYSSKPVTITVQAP
Sequence of human FcγRIIIb-NA1 (human) (O75015 other isoform, or with tags, fused parts or gaps limits assumed): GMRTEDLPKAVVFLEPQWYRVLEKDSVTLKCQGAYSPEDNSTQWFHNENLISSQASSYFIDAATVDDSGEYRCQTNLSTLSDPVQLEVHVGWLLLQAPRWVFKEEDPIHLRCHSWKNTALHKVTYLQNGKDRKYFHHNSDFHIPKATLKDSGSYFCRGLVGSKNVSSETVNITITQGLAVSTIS
Sequence of human FcγRIIa-131H (human) (P12318 34-218 limits assumed): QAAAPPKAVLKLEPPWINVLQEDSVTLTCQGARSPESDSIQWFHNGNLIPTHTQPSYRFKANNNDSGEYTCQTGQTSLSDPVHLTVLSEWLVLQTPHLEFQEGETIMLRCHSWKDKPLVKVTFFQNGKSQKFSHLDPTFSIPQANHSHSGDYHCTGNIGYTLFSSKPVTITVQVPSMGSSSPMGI
Sequence of human FcγRIIa-131R (human) (P12318 34-218 H167R limits assumed): as the sequence (P12318 34-218 limits assumed) above, with H134R counted along it
Sequence of human FcγRIIIa-158V (human) (P08637 17-208 F176V limits assumed): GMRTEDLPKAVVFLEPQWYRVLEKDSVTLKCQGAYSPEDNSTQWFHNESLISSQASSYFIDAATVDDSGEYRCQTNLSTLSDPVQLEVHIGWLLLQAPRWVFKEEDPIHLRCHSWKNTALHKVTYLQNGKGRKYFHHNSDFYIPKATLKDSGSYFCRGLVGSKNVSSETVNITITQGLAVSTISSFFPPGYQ
Sequence of human FcγRIIIa-158F (human) (P08637 17-208 limits assumed): as the sequence (P08637 17-208 F176V limits assumed) above, with V160F counted along it
Sequence of human FcγRIIIb-NA2 (human) (O75015 17-200 N65S limits assumed): as the sequence (O75015 other isoform, or with tags, fused parts or gaps limits assumed) above, with R20S, N49S, D66N, V90I counted along it
Sequence of human FcγRIa (human) (P12314 16-288 limits assumed): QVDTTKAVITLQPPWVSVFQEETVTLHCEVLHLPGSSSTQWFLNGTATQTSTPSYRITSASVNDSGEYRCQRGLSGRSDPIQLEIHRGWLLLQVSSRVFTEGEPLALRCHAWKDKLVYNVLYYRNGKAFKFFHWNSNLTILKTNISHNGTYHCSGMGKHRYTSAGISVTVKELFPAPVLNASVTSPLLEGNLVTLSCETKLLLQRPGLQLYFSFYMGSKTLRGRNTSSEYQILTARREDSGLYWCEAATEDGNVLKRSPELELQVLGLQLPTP

| Kd (human FcγRIIb (human) [1]) [nM] | Kd [2] [nM] | Kd [3] [nM] | Kd (human FcγRIa (human) [4]) [nM] | Kd [5] [nM] | Kd (human FcγRIIb (human) [6]) [nM] | Kd [7] [nM] | Kd [8] [nM] | Kd [9] [nM] | Kd (human FcγRIa (human) [10]) [nM] | Kd [11] [nM] | Kd [12] [nM] | Kd [13] [nM] | Kd [14] [nM] | Kd [15] [nM] | Kd [16] [nM] | Substance |
| --- | --- | --- | --- | --- | --- | --- | --- | --- | --- | --- | --- | --- | --- | --- | --- | --- |
| > 2000 | 241 | 126 | 13.2 | > 2000 | > 2000 | 358 | 141 | 491 | 63.3 | > 2000 |  |  |  |  |  | IgG1-G236A (antibody) |
| > 2000 | 953 | 668 | 7.1 | > 2000 | > 2000 | 920 | 455 | 337 | 27 | > 2000 | > 2000 | 382 | > 2000 | > 2000 | 894 | IgG1-WT (antibody) |
| > 2000 | 1010 | 1000 | 32.9 | 617 | > 2000 | 1990 | 1020 | 17.8 | 33.3 | > 2000 | 552 | 16.6 | 80.7 | 625 | 102 | IgG1-WT-afuc (antibody) |
|  |  |  | > 2000 |  |  |  |  |  | > 2000 |  |  |  |  |  |  | IgG1-ΔG236 (antibody) |
